Results on four molecules are retold here after patent US20240207432A1 (BIOSION, published 2024).

By Kd is commonly meant the concentration at which binding is half-saturated. In general, koff refers to a measure of how fast the partners let go of each other. As a reminder, the kon is a measure of how fast the partners come together. Read a high kon as faster complex formation. For orientation: IC50 means the concentration that gives 50% inhibition. Low values mean inhibition by little substance, high ones a need for much substance. Usually EC50 stands for the concentration that produces a half-maximal response. Read a high EC50 as a need for much substance. For orientation: EC50 (read off the curve) means the concentration at which the effect is half-maximal. Higher therefore signals weaker potency.

Assay [1] concerns the target T1, human TROP2-his protein (human, UniProt P09758 27-274).
T1 construct: Biotin-labelled in the ELISAs, unlabelled analyte in Biacore; also called biotin-labeled human TROP2-his protein; biotin human Trop2-his
T1 sequence: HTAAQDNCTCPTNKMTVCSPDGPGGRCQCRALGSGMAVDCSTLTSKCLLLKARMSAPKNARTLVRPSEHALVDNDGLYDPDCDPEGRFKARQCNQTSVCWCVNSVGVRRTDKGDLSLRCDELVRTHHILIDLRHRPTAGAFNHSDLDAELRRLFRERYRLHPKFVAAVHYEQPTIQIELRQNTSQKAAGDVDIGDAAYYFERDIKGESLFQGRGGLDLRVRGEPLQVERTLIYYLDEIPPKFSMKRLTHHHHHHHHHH
In words: SPR Biacore, antibody captured on anti-human IgG CM5 chip, TROP2-his analyte. On the procedure:
(§1) Un-reacted moieties on the chip (biosensor) surface were blocked with ethanolamine. […] The antigen-antibody association kinetics was followed for 2 minutes and the dissociation kinetics was followed for 10 minutes. The association and dissociation curves were fit to a 1:1 Langmuir binding model using BIAcore evaluation software.
On the technique in general: SPR reads the build-up and loss of mass on a sensor chip optically.

For assay [2], the target named is T2, cynomolgus TROP2-his protein (cynomolgus monkey, UniProt P09758 27-272 (human entry), limits assumed).
T2 construct: no cleavage site is stated; also called Cynomolgus monkey TROP2-his protein; monkey TROP2
T2 chain: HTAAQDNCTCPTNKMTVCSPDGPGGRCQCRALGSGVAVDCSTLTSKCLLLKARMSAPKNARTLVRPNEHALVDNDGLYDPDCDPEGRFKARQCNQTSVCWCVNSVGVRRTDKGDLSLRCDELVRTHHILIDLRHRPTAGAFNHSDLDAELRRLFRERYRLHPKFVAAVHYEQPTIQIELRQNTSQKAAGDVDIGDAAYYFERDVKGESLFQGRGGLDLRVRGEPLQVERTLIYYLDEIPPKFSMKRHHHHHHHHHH
The description is as above. On the procedure: as §1

In assay [3] the target is T1, human TROP2-his protein. In words: epitope grouping ELISA, 15 ug/ml antibody premixed with biotin human TROP2-his; competitor: coated BM1. The protocol: (§2) Firstly, capture ELISA was performed to determine the concentration of biotin-labeled human Trop2 proteins appropriate for the epitope binning test. […] The plates were washed for 4 times, added with 100 μl/well of serially diluted biotin human Trop2-his proteins (SEQ ID NO: 67) in PBST with 2.5% non-fatty milk (starting from 1.3 μg/ml with a 5-fold serial dilution), and incubated for 40 min at 37° C. Then the plates were washed for 4 times and added with 100 μl/vell of HRP-streptavidin (Jackson Immuno Research, Cat #016-030-084). The plates were incubated for another 40 min at 37° C. Then the plates were washed again, and 100 μl/well TMB was added for color development at RT for 15 min followed by quenching with 50 μl 1M H₂SO₄. The OD values at 450 nm were read.
(§3) With the appropriate concentration determined above, epitope grouping ELISA was performed. […] ELISA plates were washed once with wash buffer (PBS+0.05% v/v Tween-20, PBST) and then blocked with 200 μl blocking buffer (5% w/w non-fatty milk in PBST) for 2 hours at 37° C. […] The mixtures were incubated at room temperature for 40 minutes. After plate washing for 4 times, the antibody/biotin-TROP2-his protein mixtures were added to the antibody coated plates, 100 μl per well, and incubated for another 40 min at 37° C. Then 100 μl/well of HRP-streptavidin was added and incubated for 40 min. Then OD₄₅₀ values were determined and the cross-competition capability was calculated (cross-competition capability of antibody X (%)=(OD₄₅₀ of Antibody X-[…] of Blank)/(OD₄₅₀ of no mAb-OD₄₃₀ of Blank)*100%).
For orientation: An ELISA detects its analyte on a solid surface through an enzyme-linked reagent.

In assay [4] the target is T1, human TROP2-his protein. Nature of the assay: epitope grouping ELISA, 15 ug/ml antibody premixed with biotin human TROP2-his; competitor: coated BM2. The protocol: as §2, §3
The target of assay [5] is T1, human TROP2-his protein. Nature of the assay: epitope grouping ELISA, 15 ug/ml antibody premixed with biotin human TROP2-his; competitor: coated huA1E4F7D4-V16. On the procedure:
as §2, §3

Assay [6] has as its target T1, human TROP2-his protein. Nature of the assay: competitive ELISA: BM1 coated, antibody premixed with biotin human TROP2-his; blocked: binding of TROP2-his to coated BM1; partial only: OD falls from about 1.9 to a plateau of about 1.3.
In assay [7] the target is T2, cynomolgus TROP2-his protein. In words: indirect ELISA, cynomolgus TROP2-his coated at 2 ug/mL, OD(450-630). The protocol:
The anti-TROP2 antibodies of the disclosure were tested for their cross-reaction with cynomolgus TROP2 proteins. Briefly, 96-well micro plates were coated with 100 μl 2 μg/ml cynomolgus TROP2-his proteins (prepared in-house with SEQ ID NO: 70) in carbonate/bicarbonate buffer (pH 9.6) overnight at 4° C. ELISA plates were washed once with wash buffer (PBS+0.05% v/v Tween-20, PBST) and then blocked with 200 μl/well blocking buffer (5% w/v non-fatty milk in PBST) for 2 hours at 37° C. […] After a final wash, plates were incubated with 100 μl/well TMB (Innoreagents) at room temperature. The reaction was stopped 3-10 minutes later at room temperature with 50 μl/well 1M H₂SO₄, and the absorbance of each well was read on a microplate reader using dual wavelength mode with 450 nm for TMB and 630 nm as the reference wavelength. The OD (450-630) values were plotted against antibody concentration. Data was analyzed using Graphpad Prism software and EC₅₀ values were reported.

Assay [8] addresses T1, human TROP2-his protein. Nature of the assay: capture ELISA, captured antibody, biotin human TROP2-his in solution, OD(450-630).

B1: huA1E4F7D4-V16 (antibody, human IgG1, kappa, V domains shown)
VH: QVQLVQSGAEVKKPGASVKVSCKASGYSFTTHWIHWVRQAPGQGLEWIGTIFPSNAYAVYNQKFRDRATMTADTSISTAYIELSRLRSDDTAVYYCARASYFDYWGQGTTVTVSS
VL: EIVLTQSPATLSLSPGERATLSCRASQNIGTSIHWFQQKPGGAPRLLIKYASESISGIPSRFSGSGSGTDFTLTISSLEPEDFAVYYCQHSHSWPFTFGQGTKLEIKR
notes: Positions of the X residues are given in the claims; also called humanized antibody huA1E4F7D4-V16
In the case of B1, the dissociation constant (Kd) with human TROP2-his protein [1] came to 0.183 nM; in assay [2] it was 0.132 nM. Further, the off-rate constant (koff) with human TROP2-his protein [1] was found to be 0.000195 s⁻¹; in assay [2], 0.000164 s⁻¹. Besides, the figures for the kon (with human TROP2-his protein [1]; in assay [2]) were 1.06e+06 M⁻¹ s⁻¹ and 1.25e+06 M⁻¹ s⁻¹, respectively. Besides, the OD450 worked out at 1.42 OD450 with human TROP2-his protein [3], 1.92 OD450 with human TROP2-his protein [4] and 0.027 OD450 in the assay with human TROP2-his protein [5]. In the assay with human TROP2-his protein [6], the half-maximal inhibitory concentration (IC50) came to 0.353 nM.

B2: benchmark (in house prepared sacituzumab) (antibody, human IgG1, kappa, V domains shown)
VH: SVQLQQSGSELKKPGASVKVSCKASGYTFTNYGMNWVKQAPGQGLKWMGWINTYTGEPTYTDDFKGRFAFSLDTSVSTAYLQISSLKADDTAVYFCARGGFGSSYWYFDVWGQGSLVTVSS
VL: DIQLTQSPSSLSASVGDRVSITCKASQDVSIAVAWYQQKPGKAPKLLIYSASYRYTGVPDRFSGSGSGTDFTLTISSLQPEDFAVYYCQQHYITPLTFGAGTKVEIKR
notes: also called BM; BM1
Turning to B2, a half-maximal response in assay [7] (EC50) required 0.385 nM. Further, the dissociation constant (Kd) amounted to 0.983 nM in the assay with human TROP2-his protein [1] and 0.529 nM in assay [2]. For the same molecule, the OD450 in the assay with human TROP2-his protein [3] is 0.048 OD450; in the assay with human TROP2-his protein [4], 0.031 OD450; in the assay with human TROP2-his protein [5], 1.61 OD450.

B3: mouse antibody C1B3B12D2 (antibody, V domains shown)
VH: QVQLQQSGPELVRPGTSVKMSCKAAGYTFTKFWIGWVKQRPGHGLEWIGNIYPGGAYINYNENFKGKATLTADTFSSTAYMQLNSLTSADSAIYYCAREGSSGYWGQGTTLTVSS
VL: DIVMTQSPSSLTVTAGEKVTLSCKCSQSLLNSGTQENYLTWYQQKPGQPPKMLIYWASIREPGVPDRFTGSGSGTDFTLTINNVQAEDLAVYYCQHDYSYPFTFGSGTKLEIK
notes: Mouse monoclonal IgG purified from hybridoma supernatant
Turning to B3, in assay [7], the “EC50 (read off the curve)” value was roughly 0.6 nM. Further, in the assay with human TROP2-his protein [8], the EC50 worked out at 0.117 nM.

B4: mouse antibody A1E4F7D4 (antibody, V domains shown)
VH: QVQLQQSGAELAKPGTSVKMSCEASGYSFTTHWIHWMKQRPGQGLEWIGTIFPSNAYAVYNQKFRDRAIMTADRSSTTAYIQLTGLTSEDSAVYYCARASYFDYWGQGTTLTVSS
VL: DILLTQSPATLSVSPGERVTFSCRASQNIGTSIHWFQQRTTGSPRLLIKYASESISGIPSRFSGSGSGTDFTLHINSVESEDIAHYYCQHSHSWPFTFGSGTKLEIQ
notes: Mouse monoclonal IgG purified from hybridoma supernatant; also called Mouse A1E4F7D4
B4 registered an EC50 with human TROP2-his protein [8] of 0.261 nM. This molecule had an IC50 with human TROP2-his protein [6] of 0.702 nM.
